# Values quoted from earlier work in patent US11795217B2, “Interleukin-1 inhibition for combination treatment of pancreatic cancer cachexia” (Cedars-Sinai Medical Center, priority 2018, dated 2023).
# Columns and labels:
# [1] = tested on: patients with advanced cancer and cancer-associated symptoms; settings: in vivo, 7.5 mg/kg
# [2] = tested on: patients with refractory cancers
# [3] = tested on: patients with metastatic colorectal cancer
substance,measurement,setting,value
bermekimab,drug-related toxicities,[1],no definite drug-related toxicities
same,patients with a positive DXA outcome as defined for the responder endpoint,[2]; 61 patients,62 % of evaluable patients
same,minimum effective dose,"[2]; every 2 weeks, dose escalation study",3.75 mg/kg
same,dose limiting toxicity,"[2]; human, in vivo",no dose limiting toxicity
same,grade ¾ toxicities: fatigue,"[2]; human, in vivo",13%
same,grade ¾ toxicities: nausea,"[2]; human, in vivo",13%
same,grade ¾ toxicities: proteinuria,"[2]; human, in vivo",21%
same,average LBM (lean body mass) change,[2]; patients with positive DXA outcome,2.1 ± 2.8 kg
same,response to treatment (primary outcome),"[3]; 309 patients, randomized 2:1, placebo 19%, p=0.0045",33%
same,relative reduction in the number of SAEs,"[3]; human, in vivo",26%
